From paper PMC11257990, “Noncanonical assembly, neddylation and chimeric cullin–RING/RBR ubiquitylation by the 1.8 MDa CUL9 E3 ligase complex” (Nature Structural & Molecular Biology, 2024) come the findings set out here.

The assay deals with T1, UBE2L3 (human, UniProt P68036 1-154).
T1 construct: UBE2L3, human; source: E. coli Rosetta 2 (DE3), purified (glutathione sepharose, TEV cleavage, ion exchange, SEC)
In words: ITC; E2 (300–500 μM) in the syringe, CUL9^ARIH-RBR (25 μM) in the cell; 25 °C; 25 mM HEPES pH 7.5, 150 mM NaCl, 0.5 mM TCEP; 19 × 2 μl injections; single-site model. Conditions: both partners purified.

T1 sequence (P68036 whole entry): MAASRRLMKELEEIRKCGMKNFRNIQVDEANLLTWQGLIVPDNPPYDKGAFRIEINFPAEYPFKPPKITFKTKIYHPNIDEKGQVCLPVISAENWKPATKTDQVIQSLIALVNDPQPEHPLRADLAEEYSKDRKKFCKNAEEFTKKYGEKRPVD

B1: CUL9^ARIH-RBR (domain or fragment, human, UniProt Q8IWT3 1979-2517, looked up)
chain: SPEAVATLASLQLPAGRTMSPQEVEGLMKQTVRQVQETLNLEPDVAQHLLAHSHWGAEQLLQSYSEDPEPLLLAAGLCVHQAQAVPVRPDHCPVCVSPLGCDDDLPSLCCMHYCCKSCWNEYLTTRIEQNLVLNCTCPIADCPAQPTGAFIRAIVSSPEVISKYEKALLRGYVESCSNLTWCTNPQGCDRILCRQGLGCGTTCSKCGWASCFNCSFPEAHYPASCGHMSQWVDDGGYYDGMSVEAQSKHLAKLISKRCPSCQAPIEKNEGCLHMTCAKCNHGFCWRCLKSWKPNHKDYYNCSAMVSKAARQEKRFQDYNERCTFHHQAREFAVNLRNRVSAIHEVPPPRSFTFLNDACQGLEQARKVLAYACVYSFYSQDAEYMDVVEQQTENLELHTNALQILLEETLLRCRDLASSLRLLRADCLSTGMELLRRIQERLLAILQHSAQDFRVGLQSPSVEAWEAKGPNMPGSQPQASSGPEAEEEEEDDEDDVPEWQQDEFDEELDNDSFSYDESENLDQETFFFGDEEEDEDEAYD
notes: CUL9, human, ARIH-RBR element, residues 1979-2517; also called CUL9 RBR element; source: HEK293S, baculovirus infection, without RBX1, purified; not shown: TwinStrep, N-terminal, cleaved
Consider B1, for which the binding result is on record as “binds”.
